Measurements reported in patent US11396522B2, “Bis-acetal-based substrates for imaging exo-glycosidase activity” (ALECTOS THERAPEUTICS INC., priority 2017, dated 2022).

B1: human O-GlcNAcase (hOGA) (Homo sapiens) (protein)
chain: MVQKESQATLEERESELSSNPAASAGASLEPPAAPAPGEDNPAGAGGAAVAGAAGGARRFLCGVVEGFYGRPWVMEQRKELFRRLQKWELNTYLYAPKDDYKHRMFWREMYSVEEAEQLMTLISAAREYEIEFIYAISPGLDITFSNPKEVSTLKRKLDQVSQFGCRSFALLFDDIDHNMCAADKEVFSSFAHAQVSITNEIYQYLGEPETFLFCPTEYCGTFCYPNVSQSPYLRTVGEKLLPGIEVLWTGPKVVSKEIPVESIEEVSKIIKRAPVIWDNIHANDYDQKRLFLGPYKGRSTELIPRLKGVLTNPNCEFEANYVAIHTLATWYKSNMNGVRKDVVMTDSEDSTVSIQIKLENEGSDEDIETDVLYSPQMALKLALTEWLQEFGVPHQYSSRQVAHSGAKASVVDGTPLVAAPSLNATTVVTTVYQEPIMSQGAALSGEPTTLTKEEEKKQPDEEPMDMVVEKQEETDHKNDNQILSEIVEAKMAEELKPMDTDKESIAESKSPEMSMQEDCISDIAPMQTDEQTNKEQFVPGPNEKPLYTAEPVTLEDLQLLADLFYLPYEHGPKGAQMLREFQWLRANSSVVSVNCKGKDSEKIEEWRSRAAKFEEMCGLVMGMFTRLSNCANRTILYDMYSYVWDIKSIMSMVKSFVQWLGCRSHSSAQFLIGDQEPWAFRGGLAGEFQRLLPIDGANDLFFQPPPLTPTSKVYTIRPYFPKDEASVYKICREMYDDGVGLPFQSQPDLIGDKLVGGLLSLSLDYCFVLEDEDGICGYALGTVDVTPFIKKCKISWIPFMQEKYTKPNGDKELSEAEKIMLSFHEEQEVLPETFLANFPSLIKMDIHKKVTDPSVAKSMMACLLSSLKANGSRGAFCEVRPDDKRILEFYSKLGCFEIAKMEGFPKDVVILGRSL
notes: started by addition of hOGA (WT, Full-length, expressed in E. coli. as previously described); made in house; host or cells: E. coli
B2: GBA1 (Homo sapiens) (protein)
chain: ARPCIPKSFGYSSVVCVCNATYCDSFDPPTFPALGTFSRYESTRSGRRMELSMGPIQANHTGTGLLLTLQPEQKFQKVKGFGGAMTDAAALNILALSPPAQNLLLKSYFSEEGIGYNIIRVPMASCDFSIRTYTYADTPDDFQLHNFSLPEEDTKLKIPLIHRALQLAQRPVSLLASPWTSPTWLKTNGAVNGKGSLKGQPGDIYHQTWARYFVKFLDAYAEHKLQFWAVTAENEPSAGLLSGYPFQCLGFTPEHQRDFIARDLGPTLANSTHHNVRLLMLDDQRLLLPHWAKVVLTDPEAAKYVHGIAVHWYLDFLAPAKATLGETHRLFPNTMLFASEACVGSKFWEQSVRLGSWDRGMQYSHSIITNLLYHVVGWTDWNLALNPEGGPNWVRNFVDSPIIVDITKDTFYKQPMFYHLGHFSKFIPEGSQRVGLVASQKNDLDAVALMHPDGSAVVVVLNRSSKDVPLTIKDPAVGFLETISPGYSIHTYLWRRQ
notes: purchased R&D Systems

Assays:
Assay type in all cases: biochemical, human
[1] = substrate: CC(=O)N[C@H]1[C@H](O[C@@H](OCCOCCn2cc(CNC(=O)c3ccc(/N=N/c4ccc(N(C)C)cc4)cc3)nn2)[C@@](C)(Br)C(=O)NCCNc2cccc3c(S(=O)(=O)O)cccc23)O[C@H](CO)[C@@H](O)[C@@H]1O; experiment: In vitro kinetic assay with hOGA; details: other: PBS, 37° C., recombinant hOGA
Description: (§1) For some experiments, fluorescence kinetic assays were performed using a Varian Cary Eclipse Spectrophotometer set for 335/493 nm excitation/emission wavelengths. Slits were set at 10 nm and the detector was set on Medium voltage. Enzymatic reactions with human OGA were carried out in PBS at 37° C. and were started by addition of hOGA (WT, Full-length, expressed in E. coli. as previously described) in a total volume of 160 μL (Starna sub-micro Fluorometer cuvette). For measurements of rates using different concentrations of substrates, a hOGA concentration of 100 nM was used. For hOGA titration, 25 μM of Glyco-BABS were added to various concentration of hOGA. […] EDANS standard curve was established using endpoint fluorescence measurements of serial dilutions of EDANS in the relevant buffer using the same instrument parameters. Inner-Filter effect measurements were carried out in cuvette by measuring fluorescence of several concentrations of EDANS in presence of various concentrations of GlcNAc-BABS. Kinetics with Glc-BABS and GBA enzymes (GBA1 and GBA3 purchased from R&D Systems), kinetics with GALC (R&D systems) and Gal-BABS, pH stability, quenching efficiency, some inner-filter effect experiments and lysates experiments were carried out using a Molecular Devices SpectraMax i3× plate reader. […]

[2] = substrate: CC(=O)N[C@H]1[C@H](O[C@@H](OCCOCCn2cc(CNC(=O)c3ccc(/N=N/c4ccc(N(C)C)cc4)cc3)nn2)[C@@](C)(O)C(=O)NCCNc2cccc3c(S(=O)(=O)O)cccc23)O[C@H](CO)[C@@H](O)[C@@H]1O; experiment: In vitro kinetic assay with hOGA; details: other: PBS, 37° C., recombinant hOGA
Description: as §1

[3] = substrate: CN(C)c1ccc(/N=N/c2ccc(C(=O)NCc3cn(CCOCCOC(CC(=O)NCCNc4cccc5c(S(=O)(=O)O)cccc45)O[C@@H]4O[C@H](CO)[C@@H](O)[C@H](O)[C@H]4O)nn3)cc2)cc1; experiment: In vitro kinetic assay with GBA1; details: other: 20 nM GBA1, initial rates

Protein | kcat/Km [1] [M⁻¹ s⁻¹] | kcat/Km [2] [M⁻¹ s⁻¹] | kcat/Km [3] [M⁻¹ s⁻¹]
B1 | 263 | 519 | 
B2 |  |  | 130
